Experimental data reported in article PMC8476643 (Nature Communications, 2021).

Assays:
[1] = biological target: T1, SARS-CoV-2 receptor-binding domain (RBD) (SARS-CoV-2 Wuhan-Hu-1 (GenBank …, UniProt P0DTC2)); assay: cell-based or functional assay
[2] = biological target: T2, SARS-CoV receptor-binding domain (RBD) (SARS-CoV (GenBank NC_004718.3), UniProt P59594); assay: SPR; settings: both partners purified
T2 construct: also called SARS-CoV RBD; source: High Five cells (baculovirus, pAcgp67B), purified from the medium (Ni-sepharose)

[3] = biological target: T1, SARS-CoV-2 receptor-binding domain (RBD); assay: SPR; settings: both partners purified
[4] = biological target: T2, SARS-CoV receptor-binding domain (RBD); assay: SPR; settings: both partners purified; remark: listed apart in the source
[5] = biological target: T1, SARS-CoV-2 receptor-binding domain (RBD); assay: SPR; settings: both partners purified; remark: listed apart in the source

B1: 6D6 monoclonal antibody (antibody, V domains shown)
VH: EVQLQQSGAELVKPGASVKLSCTTSGFNIIDTYMHWVKQRPEEGLEWIGGIDPVNGNSEYDPKFQDKATITADTSSNTAYLHLSRLTSEDTAVYYCASAHYYGSSSSFPYWGQGTLVTVSA
VL: DIVMTQSQKFMSTSVGDRVSVTCKASQNVGTHVAWYQQKPGQSPKALIYSASYRYSGVPDRFTGSGVGTDFTLTITNVQSEDLAEYFCQQYNSYFTFGSGTKLEIK
notes: also called mAb 6D6; source: mouse hybridoma, ascites, purified (protein A agarose); copies: 2 + 2
- Fig. S4: IC50 of neutralisation, LV-SARS-CoV-2 WT [1]: 10.9 µg/mL
- Kd [2]: 3.72 nM
- Kd [3]: 0.01 nM
- koff [3]: 1.5e-06 s⁻¹
- kon [3]: 115000 M⁻¹ s⁻¹
- Kd [4]: 0.37 nM
- koff [4]: 6.3e-06 s⁻¹
- kon [4]: 17000 M⁻¹ s⁻¹

B2: 7D6 monoclonal antibody (antibody, V domains shown)
VH: EVQLQQSGAELVRPGASVKLSCTASGFNIKDTYIHWVKQRPEQGLEWIGRIDPGDGDTEYDPSFQGKATITADTSSNTAYLELSSLTSEDTAVYYCTRFYDYVDYGMDYWGQGTSVTVSS
VL: DIQMTQSPASLSASVGETVTITCRASGNIHNYLAWYQQKQGKSPQLLVYNAKTLADGVPSRFSGSGSGTQYSLKINSLQPEDFGSYYCQHFWSTPPWTFGGGTKLEVK
notes: also called mAb 7D6; source: mouse hybridoma, ascites, purified (protein A agarose); copies: 2 + 2
- Fig. S4: IC50 of neutralisation, LV-SARS-CoV-2 WT [1]: 5.98 µg/mL
- Kd [5]: 0.00265 nM
- Kd [3]: < 0.01 nM
- koff [3]: 1.1e-06 s⁻¹
- kon [3]: 180000 M⁻¹ s⁻¹
- Kd [4]: 0.03 nM
- koff [4]: 1.7e-06 s⁻¹
- kon [4]: 58500 M⁻¹ s⁻¹
